Test results taken from patent US20030143237A1 (University of California, published 2003).

B1: hAFP158-166, residues 158-166 of SEQ ID NO:2 (peptide)
peptide: FMNKFIYEI
notes: One of the four 'dominant' AFP peptides; synthesized by standard techniques
B2: hAFP137-145, residues 137-145 of SEQ ID NO:2 (peptide)
peptide: PLFQVPEPV
notes: as for B1
B3: hAFP542-550, residues 542-550 of SEQ ID NO:2 (peptide)
peptide: GVALQTMKQ
notes: as for B1
B4: hAFP325-334, residues 325-334 of SEQ ID NO:2 (peptide)
peptide: GLSPNLNRFL
notes: as for B1

Each binder was assayed against T1, HLA-A*0201 (human) (assay: off-kinetics assay on acid-stripped HLA-A*0201 LCL pulsed with peptide and b2 microglobulin, flow cytometry of surface HLA-A2 (stable if MFI at least 1.5-fold over unpulsed cells)).
T1 construct: MHC class I molecule on cells; detected by flow cytometry with anti-HLA-A2 antibody BB7.2; also called HLA-A2; A2.1
Experimental: Next, MHC-peptide complex stability was determined using an off-kinetics assay. […] Each peptide was immediately pulsed onto cells at […] for 1 hour in the presence of b2 microglobulin at 3 ug/ml at room temperature. Excess peptide was washed off and the cells were incubated at 37° C. for 0, 2, 4 and 6 hours. Cells were washed at the end of each time point and stained for cell surface HLA-A2 expression, then analyzed by flow cytometry.

Row | Binder | Relative Off kinetics [h]
1 | B1 | 4
2 | B2 | 4
3 | B3 | 6
4 | B4 | 2
